Series [1] can be described thus: Relative photostability of Arch and eGFP (photobleaching of Arch-eGFP fusion). Type of series: physicochemical. The following applies: measured in a 1:1 fusion with eGFP. The method, then:
(3) Relative photostability of Arch and eGFP. To perform a direct comparison of photostability of Arch and eGFP the photobleaching of the Arch-eGFP fusion was studied. This strategy guaranteed a 1:1 stoichiometry of the two fluorophores, simplifying the analysis. The experiments were performed on permeabilized cells, in the microscope, with video recording as the cells photobleached. A movie of photobleaching of Arch was first recorded under 640 nm illumination; then on the same field of view photobleaching of eGFP under 488 nm illumination was recorded, with illumination intensity adjusted to yield approximately the same initial count rate as for Arch. Fluorescence background levels were obtained from nearby protein-free regions of each movie and were subtracted from the intensity of the protein-containing regions. The area under each photobleaching timetrace was calculated, yielding an estimate of the total number of detected photons from each fluorophore. The eGFP emission (lambda-max=509 nm) and the Arch emission (lambda-max=687 nm) were collected through different emission filters, so the raw counts were corrected for the transmission spectra of the filters and the wavelength-dependent quantum yield of the EMCCD camera. The result was that the relative number of photons emitted prior to photobleaching for eGFP:Arch WT was 3.9:1, and for eGFP:ArchD95N this ratio was 10:1.

In series [2] the test system is cultured mouse hippocampal neurons. Briefly: Optopatch: optical stimulation and recording in neurons. The following applies: red light 230 W/cm^2, 640 nm. Format: cell-based. The source says: In another example, a genetic construct termed “Optopatch” was used to provide simultaneous optical stimulation and recording from neurons. One embodiment of the Optopatch construct consisted of a bicistronic vector for co-expression of channelrhopsin 64 (ChR64)-mOrange II and archaerhodopsin 3 (Arch)-eGFP. This construct is depicted in FIG. 18A. The abbreviations used in the figure may be interpreted as follows. ss: Signaling sequence designed to improve the trafficking of Arch to the plasma membrane; Arch: Archaerhodopsin 3; eGFP: Enhanced green fluorescent protein; ER2: Endoplasmic reticulum export motif, designed to improve the trafficking of Arch to the plasma membrane; P2A: porcine teschovirus-1 2A sequence, a ribosomal skip-site leading to expression of two proteins from a single mRNA transcript; ChR64: Channelrhodopsin 64, a blue light-activated ion channel; mOr2: mOrange 2 fluorescent protein. […]
Whole-field illumination with pulses of blue light (20 mW/cm^2, 10 ms, 488 nm, repeated at 10 Hz) led to flashes of red fluorescence (em: 660-760 nm), detected on a high speed EMCCD camera. […] The optically-recorded fluorescence waveform coincided closely with the electrically recorded waveform on a single-trial basis (as shown in FIG. 18C), with a noise in the optically recorded voltage of 1.1 mV at a 1 kHz acquisition rate.

B1: Arch D95N: Archaerhodopsin 3 with aspartic acid 95 mutated to asparagine; non-pumping voltage indicator (protein, UniProt P96787 7-258, looked up, variant D95N)
Archaerhodopsin-3: QAGYDLLGDGRPETLWLGIGTLLMLIGTFYFLVRGWGVTDKDAREYYAVTILVPGIASAAYLSMFFGIGLTEVTVGGEMLDIYYARYANWLFTTPLLLLDLALLAKVDRVTIGTLVGVDALMIVTGLIGALSHTAIARYSWWLFSTICMIVVLYFLATSLRSAAKERGPEVASTFNTLTALVLVLWTAYPILWIIGTEGAGVVGLGIETLLFMVLDVTAKVGFGFILLRSRAILGDTEAPEPSAGADVSAAD
As to B1, the “Photostability relative to eGFP” value in series [1] is 0.1.

B2: Archaerhodopsin 3 (protein)
chain: MDPIALQAGYDLLGDGRPETLWLGIGTLLMLIGTFYFLVRGWGVTDKDAREYYAVTILVPGIASAAYLSMFFGIGLTEVTVGGEMLDIYYARYADWLFTTPLLLLDLALLAKVDRVTIGTLVGVDALMIVTGLIGALSHTAIARYSWWLFSTICMIVVLYFLATSLRSAAKERGPEVASTFNTLTALVLVLWTAYPILWIIGTEGAGVVGLGIETLLFMVLDVTAKVGFGFILLRSRAILGDTEAPEPSAGADVSAAD
modifications: Halorubrum sodomense
notes: Microbial rhodopsin from Halorubrum sodomense, light-driven proton pump used as fluorescent voltage indicator; experiments used an Arch-eGFP fusion
Regarding B2, in series [1], the “Photostability relative to eGFP” value was 0.25. Moreover, in series [2] (n=6 cells), the “outward photocurrent mediated by Arch” value was 34±7 pA. In series [2] (n=8 cells), the “hyperpolarization of cells by Arch photocurrent” value is on record as 6.1±1.1 mV.

(Values after patent US20150004637A1, “SYSTEMS AND METHODS FOR IMAGING AT HIGH SPATIAL AND/OR TEMPORAL PRECISION” (President and Fellows of Harvard College, priority 2011, published 2015).)
